Consider seven sequences from a protein production outcome set (Wang et al. 2014).

This data set in a line: label from the status in PepcDB records.
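Note: failed if final PepcDB status was selected cloned or expressed and not failed if soluble or beyond.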

Regarding “MAITVSIELNRDLEIPASYDEVFDLLADVPKSASHFPKVDKLVDLGNNAYRWEMEKVGVDKHAIQSVYACTYHADKEAGKITWSPIKGEGNGVVSGSWTLSAKGDNATAVKFQTSAELTVPLPSLLKLAISPVIKHEFNSLVDTYMANLKKAFLEHHHHHH”, the protein production entry is recorded as “not failed”. For the sequence “MAIYTVKALITDPIDEILIKTLREKGIQVDYMPEISKEELLNIIGNYDIIVVRSRTKVTKDVIEKGKKLKIIARAGIGLDNIDTEEAEKRNIKVVYAPGASTDSAVELTIGLMIAAARKMYTSMALAKSGIFKKIEGLELAGKTIGIVGFGRIGTKVGIIANAMGMKVLAYDILDIREKAEKINAKAVSLEELLKNSDVISLHVTVSKDAKPIIDYPQFELMKDNVIIVNTSRAVAVNGKALLDYIKKGKVYAYATDVFWNEPPKEEWELELLKHERVIVTTHIGAQTKEAQKRVAEMTTQNLLNAMKELGMI”, the protein production result is listed as “not failed”. With “MAKAAKRFRTPSTTRVLYVRHAHAHGRQTWGGDDNKRPLDKKGRRQAEMLVPMLLPFKPTAIYSAVPDRCQATALPLADELGLDVSVNRLFGDDAWETDPEACKKRFTDVVAQGGVPMIVGQGDIIPEMIKWFSENGTLPIDEKIKAKKGSVWVLSFHDGVFTGADYLEHHHHHH” the entry was “failed”. With “MAKALEQPFDVANIPGPKMATLLEKGKPVANMIKKAKRPLLIVGPDMTDEMFERVKKFVEKDITVVATGSAITRFIDAGLGEKVNYAVLHELTQFLLDPDWKGFDGQGNYDLVLMLGSIYYHGSQMLAAIKNFAPHIRALAIDRYYHPNADMSFGNLWKKEEDYLKLLDEILAEL” the entry was “not failed”; with “MAKAMELWVGEMKKMSEKINTRNPLMQRKNSTSVVSKQQQGSEEERGLINQKIREKNEAVTMSELTVCLLMDRFVPW”, “failed”; with “MAKENEHFLKPDNQSPEESEQLDTVSMEPSQEIWNSTEQETSELQSDTFLSPATVRNSQTTDGYGQAEIVPATPSFMSAAGDSEEVGTPGRSLSEVFSASSLGQRSTRAADRESLQRHELGTNSFSLFSPEKEISFRNRKELEAPSGAAEEIERRVIWGTNVNVDECEQKIKKFLYEFTATTVQQDYEDGDGLQQAKPKPYYLELLTHANEMQYEVINIDLQHVFEFDSELYAYVVTYPTELIAIFDQTLQEVCKEMFATDDSSDIMSSGTSNFHAGRLITRMYNMKDTEIHSMREIDPSHIHQMIGVRGMVVRCSSVIPNMNRAFYSCNNCHWSLFVDIQRGKIEEPIQCDKCQARNSFMLIHNRSVFSDKQMIRIQETPETVPQGETPATMTIVAYDSLVDSARPGDQIEVTGILRAVSVRINPKQRSIRSVFRTYIDAIHILKGKQGRLSNSTEHMDTTSDYYPIGSDTSENALYYFERERSIREISQDPLLYDKLSRSIAPSIYGHEDLKKGILLQLFGGTRKDFSASGGGHFRSDIHVLLVGDPGTSKSLFLQYVHRIAPRGLYTSGRGSSAVGLTAYVTRDPDSNDMVLESGALVLSDKGICCIDEFDKMTDSTRSILHEAMEQQTVSIAKAGIICSLNARTSVLAAANPVESRYNPKLSVVDNIQLPPTLLSRFDLIYLILDNANPEEDKRLGNHITSLFSADTAVVHSDEDPLPSLEPATIHMPNSSHSFLDSTTLASYISYAREKVHPKLNDDAVQRLTKGYVEMRRMGNASKSWSGGIKTITATPRQLESLIRLSEAHAKMRLSDVVESQDVDEALRLVQVAMQQSAIDPITGTIDMDLITTGKSATKRSRIAKLGEAIFQYLQQTKTSDTAVRTSDVLMEVKRSSSMPFTEQDFDDAIHYLVEEERIFRVAGGLRVGTSW”, “failed”. Take “MAKGDQYQAHTEKYHDKKSKKSYKPVWIIISFIILITILLLPTPAGLPVMAKAALAILAFAVVMWVTEAVTYPVSATLILGLMILLLGLSPVQDLSEKLGNPKSGDIILKGSDILGTNNALSHAFSGFSTSAVALVAAALFLAVAMQETNLHKRLALLVLSIVGNKTRNIVIGAILVSIVLAFFVPSATARAGAVVPILLGMIAAFNVSKDSRLASLLIITAVQAVSIWNIGIKTAAAQNIVAINFINQNLGHDVSWGEWFLYAAPWSIIMSIALYFIMIKFMPPEHDAIEGGKELIKKELNKLGPVSHREWRLIVISVLLLFFWSTEKVLHPIDSASITLVALGIILMPKIGVITWKGVEKKIPWGTIIVFGVGISLGNVLLKTGAAQWLSDQTFGLMGLKHLPIIATIALITLFNILIHLGFASATSLASALIPVFISLTSTLNLGDHAIGFVLIQQFVISFGFLLPVSAPQNMLAYGTGTFTVKDFLKTGIPLTIVGYILVIVFSLTYWKWLGLV”: the protein production entry is on record as “failed”.
